This passage reports Kd results from paper PMC11996885 (2025).

The target in this assay is FGFR2 on SNU16 cells (FGFR2 amplification) (human (endogenous in SNU16), UniProt P21802 22-821). Nature of the assay: FACS; apparent Kd, SNU16 cells.
FGFR2 on SNU16 cells (FGFR2 amplification), sequence (P21802 22-821): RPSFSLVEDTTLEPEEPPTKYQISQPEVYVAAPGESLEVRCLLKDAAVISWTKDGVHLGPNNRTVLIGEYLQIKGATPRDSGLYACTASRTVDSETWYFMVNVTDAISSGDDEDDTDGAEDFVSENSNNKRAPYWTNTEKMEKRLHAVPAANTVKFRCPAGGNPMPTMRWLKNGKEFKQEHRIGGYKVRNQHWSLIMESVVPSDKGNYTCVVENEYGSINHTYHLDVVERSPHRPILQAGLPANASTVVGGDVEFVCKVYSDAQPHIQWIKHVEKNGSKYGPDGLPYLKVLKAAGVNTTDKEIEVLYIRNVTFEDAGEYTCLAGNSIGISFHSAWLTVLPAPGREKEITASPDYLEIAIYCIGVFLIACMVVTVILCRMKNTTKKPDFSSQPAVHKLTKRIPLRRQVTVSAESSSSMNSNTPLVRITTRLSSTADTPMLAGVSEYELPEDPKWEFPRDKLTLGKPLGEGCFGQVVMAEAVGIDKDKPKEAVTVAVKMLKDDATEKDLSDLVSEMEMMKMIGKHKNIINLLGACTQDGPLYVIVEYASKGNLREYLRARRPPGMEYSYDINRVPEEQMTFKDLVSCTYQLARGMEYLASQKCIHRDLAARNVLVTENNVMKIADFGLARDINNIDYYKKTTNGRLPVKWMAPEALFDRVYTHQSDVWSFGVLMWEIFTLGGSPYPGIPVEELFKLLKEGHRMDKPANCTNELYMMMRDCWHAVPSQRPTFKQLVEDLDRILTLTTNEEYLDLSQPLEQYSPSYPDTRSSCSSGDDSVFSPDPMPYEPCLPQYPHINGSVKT

B1: FGFR2 parental antibody A (antibody, V domains shown)
VH: EVQLLESGGGLVQPGGSLRLSCAASGFTFSSYAMSWVRQAPGKGLEWVSAISGSGTSTYYADSVKGRFTISRDNSKNTLYLQMNSLRAEDTAVYYCARVRYNWNHGDWFDPWGQGTLVTVSS
VL: QSVLTQPPSASGTPGQRVTISCSGSSSNIGNNYVSWYQQLPGTAPKLLIYENYNRPAGVPDRFSGSKSGTSASLAISGLRSEDEADYYCSSWDDSLNYWVFGGGTKLTVL
As to B1, the Kd is 0.76 nM.

B2: FGFR2 parental antibody E (antibody, V domains shown)
VH: QVQLVQSGAEVKKPGSSVKVSCKASGYIFTTYNVHWVRQAPGQGLEWIGSIYPDNGDTSYNQNFKGRATITADKSTSTAYMELSSLRSEDTAVYYCARGDFAYWGQGTLVTVSS
VL: DIQMTQSPSSLSASVGDRVTITCKASQGVSNDYAWYQQKPGKAPKLLIYSASYRYTGVPSRFSGSGSGTDFTFTISSLQPEDIATYYCQQHSTTPYTFGQGTKLEIK
B2: the Kd was 1.77 nM.

B3: FGFR2 parental antibody B (antibody, V domains shown)
VH: QIQLVQSGPELKKPGETVKISCKASGYTFTDFGMNWMKQAPGKGFKWMGWINTSTGESTYADDFKGRFAFSLETSASTAYLQINNLKNEDMATYFCARNSYYGGSYGYWGQGTTLTVSS
VL: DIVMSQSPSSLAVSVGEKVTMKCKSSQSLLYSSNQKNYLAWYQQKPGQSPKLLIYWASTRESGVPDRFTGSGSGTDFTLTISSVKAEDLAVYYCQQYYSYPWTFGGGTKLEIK
For B3, the Kd stood at 32.8 nM.

B4: FGFR2 parental antibody C (antibody, V domains shown)
VH: QVQLVESGGGLVKPGGSLRLSCAASGFTFSSYALSWVRQAPGKGLEWVGRIRSKIDGGTTDYAAPVKGRFTISRDDSKNTLYLQMNSLKTEDTAVYYCARDRSPSDSSAFAIWGQGTLVTVSS
VL: DIELTQPPSVSVSPGQTASITCSGDNLGSQYVDWYQQKPGQAPVLVIYDDNDRPSGIPERFSGSNSGNTATLTISGTQAEDEADYYCQSWDSLSVVFGGGTKLTVL
B4: the Kd came out at 0.15 nM.

B5: FGFR2 parental antibody F (antibody, V domains shown)
VH: QVQLVQSGAEVKKPGESLKISCKGSGYSFTNYYIHWVRQMPGKGLEWMGAIYPDNSDTTYSPSFQGQVTISADKSISTAYLQWSSLKASDTAMYYCARGADIWGQGTLVTVSS
VL: DIQMTQSPSSLSASVGDRVTITCRASQDIDPYLSNWYQQKPGKAPKLLIYDASNLQSGVPSRFSGSGSGTDFTLTISSLQPEDFATYYCQQTTSHPYTFGQGTKVEIK
Consider B5, for which the Kd stood at 9.4 nM.

B6: FGFR2 parental antibody D (antibody, V domains shown)
VH: EVQLVESGGGLVQPGGSLRLSCAASGFPFTSTGISWVRQAPGKGLEWVGRTHLGDGSTNYADSVKGRFTISADTSKNTAYLQMNSLRAEDTAVYYCARTYGIYDTYDMYTEYVMDYWGQGTLVTVSS
VL: DIQMTQSPSSLSASVGDRVTITCRASQDVDTSLAWYKQKPGKAPKLLIYSASFLYSGVPSRFSGSGSGTDFTLTISSLQPEDFATYYCQQSTGHPQTFGQGTKVEIK
B6: the Kd was determined as 1.99 nM.
